# According to patent US11858972B2, “Micropeptides and uses thereof” (FUNDACIÓ PRIVADA INSTITUT D'INVESTIGACIÓ ONCOLÒGICA DE VALL …, priority 2018, dated 2024):
# B1: SEQ ID NO: 1: highly conserved 87 aa micropeptide coded by the lncRNA TINCR; predicted ubiquitin-like protein (protein, listed as Homo sapiens)
# chain: MEGLRRGLSRWKRYHIKVHLADEALLLPLTVRPRDTLSDLRAQLVGQGVSSWKRAFYYNARRLDDHQTVRDARLQDGSVLLLVSDPR
# Legend:
# [1] = test system: SkBR-3, HPAF II, MIA PaCa-2 and BxPC-3 cells; test: Cell death upon puromycin selection stress (phase contrast images); type: cell-based; details: Puromycin selection of infected cells, pMSCV non-inducible vector; several pancreatic and breast cancer cell lines
# Method: FIG. 6. Micropeptide of sequence SEQ ID NO: 1 expression induces cell death upon cellularstress. SkBR-3, HPAF II, MIA PaCa-2 and BxPC-3 cells were infected with empty or SEQ ID NO: 1-HA retroviruses, and selected by puromycin. Micropeptide of sequence SEQ ID NO: 1 expression was analyzed by qPCR (A) and by Western blot (B). (C) Phase contrast images of the indicated cells 3 days after selection with puromycin. […] (E) BXPC-3 cells were infected with an inducible lentivirus encoding SEQ ID NO: 1-HA, and selected with Neomycin. Micropeptide of sequence SEQ ID NO: 1 expression was induced by doxycycline, and cells were treated with Doxorubicin or Actinomycin D. (E) Cell viability of the indicated cells measured by crystal violet staining.
# [2] = test system: Lung cancer cell line A549; test: Cell proliferation assay (growth curve, 14 days); type: cell-based, human; details: A549, monitored for 14 days, vs control vector
# Excerpt: FIG. 8. SEQ ID NO: 1 overexpression reduces cell proliferation. A549 and H10 cells were transduced with an inducible lentivirus coding HA-SEQ ID NO: 1. SEQ ID NO: 1 expression was induced by doxycycline treatment for 14 days. (A) Growth curve of transduced cells over 14 days of SEQ ID NO:1 expression. (B) Cell cycle analysis by flow cytometry. Left, histogram plots. Right, quantification of the number of cells in every cell cycle phase. Graphs show the mean±SD, using at least 3 technical replicates. **** P<0.0001, two-tailed t-test.
# A549 and H10 cell lines were dissociated by trypsin digestion and seeded into 24-well cell culture plates at density 5×10^3 cells/well. Every two days, cells were dissociated from wells and counted using a Neubauer chamber. Cell growth curves were monitored for 14 days.
# [3] = test system: A549 cancer cells; test: Invasion assay (Boyden chamber, Matrigel); type: cell-based, human; details: A549, after 4 days of doxycycline induction, 24 h invasion
# Method: (§1) FIG. 9. SEQ ID NO: 1 overexpression impairs invasiveness and reduces mesenchymal traits in A549 and H10 cell lines. Invasion of indicated cells was analyzed in matrigel-coated inserts. (A) The undersides of membrane inserts containing invaded cells were fixed and stained with crystal violet and photographed 24 h after plating. (B) Number of invasive cells was calculated using ImageJ software. Bars plots show relative number of cells invading the chamber. (C) Analysis of several mesenchymal genes by qPCR. mRNA expression is shown relative to the control. * P<0.05, **P<0.01 two-tailed t-test.
# (§2) BxPC-3, MDA-MB-231, A549 and H10 cell lines were trypsinized, counted, and 20.000 cells/well were seeded in triplicate in a Corning® cell culture insert (Boyden chamber) in which the porous membrane is coated with a layer of Matrigel® to mimic an extra cellular matrix (ECM). Cells were allowed to invade through the coated membrane for 24 hours in the cell incubator at 37° C. After the incubation time, culture inserts were fixed in methanol 5 minutes at RT and stained using Crystal Violet 20 minutes at RT. The excess of Crystal Violet staining was removed washing with PBS and pictures of the chambers were taken using an Olympus CeIIR microscope. Invading cells were counted using ImageJ and fold change was calculated normalizing to the control.
# [4] = test system: BxPC-3 infected cells; test: Annexin V/PI assay; type: cell-based; details: BxPC-3, SEQ ID NO: 1-Puromycin conditions
# Method: FIG. 6. Micropeptide of sequence SEQ ID NO: 1 expression induces cell death upon cellularstress. SkBR-3, HPAF II, MIA PaCa-2 and BxPC-3 cells were infected with empty or SEQ ID NO: 1-HA retroviruses, and selected by puromycin. Micropeptide of sequence SEQ ID NO: 1 expression was analyzed by qPCR (A) and by Western blot (B). (C) Phase contrast images of the indicated cells 3 days after selection with puromycin. (D) Annexin-V/PI staining of BxPC-3 infected cells with and without puromycin treatment, analyzed by Flow Cytrometry. (E) BXPC-3 cells were infected with an inducible lentivirus encoding SEQ ID NO: 1-HA, and selected with Neomycin. Micropeptide of sequence SEQ ID NO: 1 expression was induced by doxycycline, and cells were treated with Doxorubicin or Actinomycin D. (E) Cell viability of the indicated cells measured by crystal violet staining.
# After lentiviral infection and puromycin selection for 72 h, infected cells were washed twice with cold PBS and resuspended in Binding Buffer at a cell density of 1×10^6 cells/mL. Following manufacturer's instructions (BD Pharmingen™) 100 μL of cells were treated with 5 μL of Annexin V-FITC. After incubation for 15 min in the dark at room temperature, 400 ul of Binding Buffer was added and each sample was supplemented with 10 μL of Propidium Iodide. Flow cytometry analysis was performed on a LSR Fortessa cytometer.
# [5] = test system: ubiquitylated proteins; test: Co-Immunoprecipitation using Anti-HA and Western Blot; type: binding; details: immunoprecipitation with Anti-HA
# Excerpt: FIG. 11. Micropeptide of sequence SEQ ID NO: 1 expression changes cell ubiquitylation pattern. (A) Co-Immunoprecipitation using Anti-HA and Western Blot experiments indicate the presence of ubiquitylated proteins in the pull down of SEQ ID NO: 1 expressing cells. (B) Analysis of ubiquitylated protein levels by Western Blot in SEQ ID NO: 1 or empty vector BxPC-3 infected cells after proteasome blocking treatment with MG132.
# [6] = test system: H10 cancer cells; test: Invasion assay (Boyden chamber, Matrigel); type: cell-based; details: H10, after 4 days of doxycycline induction, 24 h invasion
# Method: as §1, §2
# [7] = test system: BxPC-3 cells; test: SA-β-gal staining assay; type: cell-based; details: BxPC-3, doxycycline-treated vs untreated
# Excerpt: FIG. 5. Micropeptide of sequence SEQ ID NO: 1 overexpression induces cell cycle arrest and cellular senescence. BxPC-3 cells were transduced with an inducible lentivirus coding HA-SEQ ID NO: 1. Micropeptide of sequence SEQ ID NO: 1 expression was induced by doxycycline treatment for 4 days. (A) Phase contrast images of SEQ ID NO:1-expressing cells and control cells. (B) Cell viability analysis by CellTiter-Glo assay. (C) Cell cycle analysis by flow cytometry. Left, histogram plots. Right, quantification of the number of cells in every cell cycle phase (D) Analysis of p27 and p21 expression by qPCR. (E) Western Blot of the indicated cells using anti-HA and anti-p21 antibodies. (F) Quantification of the number of SA-β-Gal positive cells in doxycycline-treated and untreated cells. (G) Representative pictures of the cell quantified in (F). Graphs show the mean±SEM, using at least 3 technical replicates. **P<0.01 ***P<0,001 **** P<0.0001, two-tailed t-test.
# For SA-β-gal staining, cells were fixed and stained using a commercial senescence β-galactosidase staining kit (Cell Signalling) following manufacture's protocol.
molecule,measurement,setting,value
B1,cell death when coupled with cellular stress,[1],extensive cell death
same,growth rate,[2],consistently lower growth rate
same,invasion,[3],significant decrease in invasion
same,percentage of early apoptotic cells,[4],22.4%
same,percentage of late apoptotic cells,[4],58.6%
same,binding to ubiquitylated proteins,[5],binds to ubiquitylated proteins
same,invasion,[6],significant decrease in invasion
same,number of senescent cells (SA-β-Gal-positive cells),[7],increase
